One experiment addresses T1, HLA-DP4 (human, UniProt P20036 29-222; P04440 30-225).
T1 chain 1: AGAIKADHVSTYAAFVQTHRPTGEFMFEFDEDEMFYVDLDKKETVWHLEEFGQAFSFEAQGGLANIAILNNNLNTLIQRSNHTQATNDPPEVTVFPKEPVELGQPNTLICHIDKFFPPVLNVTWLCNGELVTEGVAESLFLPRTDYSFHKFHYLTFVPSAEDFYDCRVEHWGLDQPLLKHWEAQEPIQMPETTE
T1 chain 2: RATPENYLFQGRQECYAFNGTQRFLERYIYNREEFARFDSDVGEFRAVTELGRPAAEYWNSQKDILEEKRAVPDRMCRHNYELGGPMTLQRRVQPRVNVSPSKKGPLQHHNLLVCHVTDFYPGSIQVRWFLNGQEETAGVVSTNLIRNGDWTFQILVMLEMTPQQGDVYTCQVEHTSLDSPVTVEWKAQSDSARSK
Nature of the experiment: competition.

The target of the next experiment is T2, HLA-DP2 (human, UniProt P20036 29-222; P04440 30-225).
T2 chain 1: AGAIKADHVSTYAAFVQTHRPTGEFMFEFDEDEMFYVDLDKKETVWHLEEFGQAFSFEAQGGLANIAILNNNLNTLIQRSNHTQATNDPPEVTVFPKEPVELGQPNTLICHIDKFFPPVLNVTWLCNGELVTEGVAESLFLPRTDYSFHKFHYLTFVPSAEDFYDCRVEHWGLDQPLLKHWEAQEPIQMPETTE
T2 chain 2: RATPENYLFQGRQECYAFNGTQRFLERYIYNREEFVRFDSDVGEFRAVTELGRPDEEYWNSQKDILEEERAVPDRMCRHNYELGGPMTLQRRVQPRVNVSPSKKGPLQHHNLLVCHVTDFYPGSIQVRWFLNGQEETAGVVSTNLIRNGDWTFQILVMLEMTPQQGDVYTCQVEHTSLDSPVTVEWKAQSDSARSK
Nature of the experiment: competition.

We go through one molecule from US20260042827A1 (published 2026).

What is called IC50 is the concentration needed to halve the response being measured. The low end stands for higher potency, the high end for lower potency. For PGCNKRYFKLSHLQMHSRKHT [WT1328-348], the IC50 is 23.8 µM with HLA-DP4 and 8 µM in the experiment with HLA-DP2.
